What was measured:
db/db mice [1] = experiment: Food intake of db/db mice (Example 1); assay type: in vivo; settings: for food intake, mean: NT-4/5 20 mg/kg s.c., Rosiglitazone 3 mg/kg p.o.
Protocol: Throughout the experiment period (T1-T26), daily individual body weights as well as food intake per cage were measured.

[2] = test system: NONcNZO-10 polygenic obese and diabetic mice; experiment: Non-fasting blood glucose and HbA1c in polygenic obese and diabetic mice NONcNZO-10 (Example 3); assay type: in vivo; settings: 2 or 10 mg/kg s.c. daily; dose dependent
From the text: Test animals: 19 male NONcNZO-10 polygenic obese and diabetic mice from Jackson Laboratory (See Leiter et al., Diabetes 53 (Suppl. 1): S4-S11, 2004) at 9 weeks of age weighing in the range of 28-35 g were used in this study.
Administration of NT-4/5: NT-4/5 was obtained from Genentech Inc.
The mice were divided into 3 groups of equivalent body weight and baseline glucose distribution (6-7 mice per group). […] Seven days before starting the treatment (day −7), blood samples were collected from the mice as described previously for the determination of baseline levels of blood glucose and triglyceride. After the treatment started, blood samples were collected weekly to determine glucose and triglyceride levels as described in previous examples. Body weight and food intake were monitored 5 days a week through out the entire study.

db/db mice [3] = experiment: Body weight after single injection of NT-4/5 or pegylated NT-4/5 in db/db mice (Example 7, Table 21); assay type: in vivo; settings: for Body weight expressed in percentage of baseline value: single 5 mg/kg dose on day 1
Protocol: (§1) Test animals: 30 female db/db mice at 7 weeks of age weighing in the range of 27-34 g were used in this study.
(§2) Administration of NT-4/5 and pegylated NT-4/5: Wild type NT-4/5 was obtained from Genentech Inc. The mice were divided into 5 groups of equivalent body weight distribution (6 mice per group). Each group received on the first day (day 1) of the study one and the only dose of either vehicle, 5 mg/kg of NT-4/5 produced as described above, 5 mg/kg of 2PEG-NT4-G1S, or 5 mg/kg of 1PEG-NT4-G1S. 2PEG-NT4-G1S represents one PEG molecule was conjugated to each NT-4/5 monomer in a NT-4/5 dimer, and 1PEG-NT4-G1S represents one PEG molecule was conjugated to only one monomer of the NT-4/5 dimer. 2PEG-NT4-G1S and 1PEG-NT4-G1S were separated by ion exchange. Four days before starting the treatment (day −4), blood samples were collected from the mice as described previously for the determination of baseline levels of serum glucose. On day 4 after the treatment started, blood samples were collected again to determine serum glucose level. Body weight and food intake were monitored 5 days a week through out the entire study.

p75NTR = molecular target: T1, p75NTR (Homo sapiens, UniProt P08138); settings: low affinity receptor (LNGFR, p75NTR); cited from earlier work
T1 sequence (P08138 29-427): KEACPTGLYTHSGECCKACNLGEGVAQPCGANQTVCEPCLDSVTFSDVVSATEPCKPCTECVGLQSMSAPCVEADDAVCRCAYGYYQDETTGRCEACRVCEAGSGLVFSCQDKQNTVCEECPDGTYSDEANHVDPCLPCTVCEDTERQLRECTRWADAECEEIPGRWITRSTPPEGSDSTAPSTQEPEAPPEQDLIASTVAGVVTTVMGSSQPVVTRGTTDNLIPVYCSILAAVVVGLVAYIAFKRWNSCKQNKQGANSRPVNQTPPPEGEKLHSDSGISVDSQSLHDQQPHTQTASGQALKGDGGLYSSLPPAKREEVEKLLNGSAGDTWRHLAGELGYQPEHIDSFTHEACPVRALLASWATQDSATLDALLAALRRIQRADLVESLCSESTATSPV

db/db mice [4] = experiment: Daily food intake after single injection of NT-4/5 or pegylated NT-4/5 in db/db mice (Example 7, Table 22); assay type: in vivo; settings: for Daily food intake: single s.c. injection 5 mg/kg, db/db mice, mean
Protocol: as §1, §2

[5] = single subcutaneous injection, 5 mg/kg, significantly

CN(CCOc1ccc(CC2SC(=O)NC2=O)cc1)c1ccccn1 (centres unmarked) [Rosiglitazone, reference compound]
food intake, mean (db/db mice [1]; Day 1): 100.8 g/kg/day
food intake, mean (db/db mice [1]; Day 2): 124.9 g/kg/day
food intake, mean (db/db mice [1]; Day 3): 137.8 g/kg/day
food intake, mean (db/db mice [1]; Day 5): 143.1 g/kg/day
food intake, mean (db/db mice [1]; Day 6): 63.4 g/kg/day
food intake, mean (db/db mice [1]; Day 7): 96.6 g/kg/day
food intake, mean (db/db mice [1]; Day 8): 129.1 g/kg/day
food intake, mean (db/db mice [1]; Day 9): 139.3 g/kg/day
food intake, mean (db/db mice [1]; Day 10): 140.2 g/kg/day
food intake, mean (db/db mice [1]; Day 11): 128.1 g/kg/day
food intake, mean (db/db mice [1]; Day 12): 114.4 g/kg/day
food intake, mean (db/db mice [1]; Day 13): 98.3 g/kg/day
food intake, mean (db/db mice [1]; Day 14): 129.1 g/kg/day
food intake, mean (db/db mice [1]; Day 15): 100.3 g/kg/day
food intake, mean (db/db mice [1]; Day 18): 108.2 g/kg/day
food intake, mean (db/db mice [1]; Day 19): 102.0 g/kg/day
food intake, mean (db/db mice [1]; Day 20): 90.5 g/kg/day
food intake, mean (db/db mice [1]; Day 21): 129.9 g/kg/day
food intake, mean (db/db mice [1]; Day 22): 122.3 g/kg/day
food intake, mean (db/db mice [1]; Day 25): 125.4 g/kg/day
food intake, mean (db/db mice [1]; Day 26): 109.2 g/kg/day

B1: NT-4/5: mature human neurotrophin-4/5 (SEQ ID NO:1), obtained from Genentech or produced in E. coli (protein, listed as Homo sapiens)
chain: GVSETAPASRRGELAVCDAVSGWVTDRRTAVDLRGREVEVLGEVPAAGGSPLRQYFFETRCKADNAEEGGPGAGGGGCRGVDRRHWVSECKAKQSYVRALTADAQGRVGWRWIRIDTACVCTLLSRTGRA
long term glycemic control, HbA1c levels [2]: improved long term glycemic control
non-fasting blood glucose level [2]: reduced non-fasting blood glucose level
Body weight expressed in percentage of baseline value (db/db mice [3]; Day 1): 100.0 % of baseline
Body weight expressed in percentage of baseline value (db/db mice [3]; Day 2): 97.7 % of baseline
Body weight expressed in percentage of baseline value (db/db mice [3]; Day 3): 100.5 % of baseline
Body weight expressed in percentage of baseline value (db/db mice [3]; Day 4): 101.7 % of baseline
body weight growth (db/db mice [3]; [5]): reduced the body weight growth
Kd (p75NTR): 2 nM
food intakes (db/db mice [1]; 20 mg/kg s.c.): dramatically suppressed
food intake, mean (db/db mice [1]; Day 1): 104.1 g/kg/day
food intake, mean (db/db mice [1]; Day 2): 56.9 g/kg/day
food intake, mean (db/db mice [1]; Day 3): 90.7 g/kg/day
food intake, mean (db/db mice [1]; Day 4): 68.6 g/kg/day
food intake, mean (db/db mice [1]; Day 5): 44.1 g/kg/day
food intake, mean (db/db mice [1]; Day 6): 38.5 g/kg/day
food intake, mean (db/db mice [1]; Day 7): 43.1 g/kg/day
food intake, mean (db/db mice [1]; Day 8): 63.4 g/kg/day
food intake, mean (db/db mice [1]; Day 9): 45.6 g/kg/day
food intake, mean (db/db mice [1]; Day 10): 51.8 g/kg/day
food intake, mean (db/db mice [1]; Day 11): 56.2 g/kg/day
food intake, mean (db/db mice [1]; Day 12): 62.6 g/kg/day
food intake, mean (db/db mice [1]; Day 13): 42.3 g/kg/day
food intake, mean (db/db mice [1]; Day 14): 76.3 g/kg/day
food intake, mean (db/db mice [1]; Day 15): 69.9 g/kg/day
food intake, mean (db/db mice [1]; Day 19): 78.0 g/kg/day
food intake, mean (db/db mice [1]; Day 20): 79.1 g/kg/day
food intake, mean (db/db mice [1]; Day 21): 123.9 g/kg/day
food intake, mean (db/db mice [1]; Day 22): 114.4 g/kg/day
food intake, mean (db/db mice [1]; Day 25): 120.6 g/kg/day
food intake, mean (db/db mice [1]; Day 26): 116.3 g/kg/day
Daily food intake (db/db mice [4]; Day 1): 6.6 g/day
Daily food intake (db/db mice [4]; Day 2): 5.2 g/day
Daily food intake (db/db mice [4]; Day 3): 7.3 g/day
Daily food intake (db/db mice [4]; Day 4): 6.3 g/day
food intake (db/db mice [4]; [5]): reduced

Reference: patent US20090203610A1, “METHODS OF TREATING OBESITY OR DIABETES USING NT-4/5” (RINAT NEUROSCIENCE CORPORATION, priority 2004, published 2009)
